Key:
[1] = biological target: T1, CstF-64 RRM-Hinge;CstF-77 MT-CTD (Homo sapiens;Homo sapiens, UniProt P33240;Q12996 1-195;607-717, |); assay: NMR (1H-15N HSQC titration); smaller CSPs; last 30 aa of CstF-77 show no significant CSP; 10 mM phosphate pH 6.0, 2 mM TCEP, 30 C; 15N-labeled protein titrated with unlabeled RNA; settings: protein: recombinant;recombinant, tags: His6-TEV, removed by TEV;MBP-TEV, copies: 1;1, label: none, single strand
T1 sequence 1: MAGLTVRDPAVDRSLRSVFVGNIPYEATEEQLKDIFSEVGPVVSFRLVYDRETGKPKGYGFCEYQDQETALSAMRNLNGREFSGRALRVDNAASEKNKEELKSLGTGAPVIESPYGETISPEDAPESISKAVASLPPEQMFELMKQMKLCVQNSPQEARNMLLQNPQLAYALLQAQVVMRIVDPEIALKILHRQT
T1 sequence 2: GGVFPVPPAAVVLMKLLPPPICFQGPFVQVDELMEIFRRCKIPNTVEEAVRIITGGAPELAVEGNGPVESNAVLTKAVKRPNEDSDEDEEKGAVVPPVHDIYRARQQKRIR

[2] = biological target: T2, CstF-64 RRM-Hinge;CstF-77 MT (MT-CTD lacking last 30 aa) (Homo sapiens;Homo sapiens, UniProt P33240;Q12996 1-195;607-687, |del688-717); assay: NMR (1H-15N HSQC titration); 10 mM phosphate pH 6.0, 2 mM TCEP, 30 C; 15N-labeled protein titrated with unlabeled RNA; settings: protein: recombinant;recombinant, tags: His6-TEV, removed by TEV;MBP-TEV, copies: 1;1, label: none, single strand
T2 sequence 1: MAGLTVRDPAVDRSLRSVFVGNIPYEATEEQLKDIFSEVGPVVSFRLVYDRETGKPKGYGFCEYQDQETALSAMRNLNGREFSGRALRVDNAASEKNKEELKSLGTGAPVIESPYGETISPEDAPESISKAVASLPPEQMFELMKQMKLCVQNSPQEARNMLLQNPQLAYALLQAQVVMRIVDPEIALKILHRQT
T2 sequence 2: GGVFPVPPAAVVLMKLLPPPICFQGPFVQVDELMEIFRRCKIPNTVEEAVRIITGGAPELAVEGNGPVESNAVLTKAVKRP

[3] = biological target: T3, CstF-64 RRM (Homo sapiens, UniProt P33240 1-107); assay: as above; settings: protein: recombinant; tags: His6-TEV, removed by TEV; label: none; single strand
T3 sequence: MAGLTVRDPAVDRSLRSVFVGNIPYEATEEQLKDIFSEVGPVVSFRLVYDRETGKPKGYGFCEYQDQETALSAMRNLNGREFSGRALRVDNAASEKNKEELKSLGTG

B1: SVL RNA (ssRNA)
RNA: AUUUUAUGUUUCAGGU
Which Kd [1] does the source give for B1 here?
The Kd was 3.3 ± 2.3 µM.

And the Kd [2]?
The Kd was 3.5 ± 1 µM.

And the Kd [3]?
Its Kd is 0.7 ± 0.4 µM.
